This is an account of results in patent publication US20100311820, “NUCLEIC ACID MODULATORS OF GLYCOPROTEIN VI” (Regado Biosciences, Inc, published 2010).

For data set [1], the target named is T1, Glycoprotein VI extracellular domain (Gln21-Lys267) (Homo sapiens, UniProt Q9HCN6 SEQ:1-247).
T1 chain: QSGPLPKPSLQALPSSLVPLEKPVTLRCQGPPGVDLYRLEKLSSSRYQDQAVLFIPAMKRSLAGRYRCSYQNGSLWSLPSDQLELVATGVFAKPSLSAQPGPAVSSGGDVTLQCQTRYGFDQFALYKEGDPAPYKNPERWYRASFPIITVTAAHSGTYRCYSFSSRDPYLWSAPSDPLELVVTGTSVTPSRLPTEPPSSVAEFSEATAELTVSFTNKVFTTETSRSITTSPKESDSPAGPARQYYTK
Briefly: filter; equivalent to full-length EF-1. Particulars: tags: C-terminal His6; R&D Systems 3627-GP; label: 5'-32P. The protocol:
Enrichment of the ligand libraries for GPVI was monitored in direct binding studies utilizing radiolabeled ligand RNA from respective rounds of SELEX and soluble GPVI. Binding studies were performed with trace P³² end-labeled RNA added to serial dilutions of GPVI in Binding Buffer F. To prepare radiolabeled RNAs for binding studies, one hundred picomoles of RNA was dephosphorylated with Bacterial Alkaline Phopshatase at 50° C. for 1 hour. The reaction was phenol:chloroform:isoamyl alcohol (25:24:1) extracted, chloroform: isoamyl:alcohol (24:1) extracted, and ethanol precipitated. Three pmoles of dephosphorylated RNA was end labeled with T4 Poylnucleotide Kinase with supplied buffer, and 20 μCi of γ-P³²-ATP and subsequently cleaned with a Biorad MicroBio Spin P-30 spin column. End-labeled RNA was diluted to a final concentration of 2000 cpm/μL and heat denatured at 65° C. for 5 minutes. RNA and GPVI dilutions were equilibrated at 37° C. prior to use. RNA (5 μL) was added to varying concentrations of GPVI (15 μL) at 37° C. and incubated together for 5 to 15 minutes. […] The membranes were exposed to a phosphorimager screen, scanned, and quantitated with a Molecular Dynamics Storm 840 Phosphorimager. The fraction bound was calculated by dividing the counts on the nitrocellulose by the total counts and adjusting for the background. […]

For data set [2], the target named is T1, Glycoprotein VI extracellular domain …. Put plainly: filter; binding comparable with and without annealed 3' primer. Particulars: tags: C-terminal His6; R&D Systems 3627-GP; label: 5'-32P; 3' fixed region paired with DNA primer. As to the method:
The reaction was phenol:chloroform:isoamyl alcohol (25:24:1) extracted, chloroform: isoamyl:alcohol (24:1) extracted, and ethanol precipitated. Three pmoles of dephosphorylated RNA was end labeled with T4 Poylnucleotide Kinase with supplied buffer, and 20 μCi of γ-P³²-ATP and subsequently cleaned with a Biorad MicroBio Spin P-30 spin column. End-labeled RNA was diluted to a final concentration of 2000 cpm/μL and heat denatured at 65° C. for 5 minutes. RNA and GPVI dilutions were equilibrated at 37° C. prior to use. RNA (5 μL) was added to varying concentrations of GPVI (15 μL) at 37° C. and incubated together for 5 to 15 minutes. The complexed RNA/GPVI protein mixture was then loaded over a Protean BA85 nitrocellulose membrane, overlayed on a Genescreen Plus Nylon membrane, in a 96 well vacuum manifold system with washing. The membranes were exposed to a phosphorimager screen, scanned, and quantitated with a Molecular Dynamics Storm 840 Phosphorimager. The fraction bound was calculated by dividing the counts on the nitrocellulose by the total counts and adjusting for the background. Results for binding of enriched ligand libraries from round 10 E2 and round 10 EF of the SELEX as compared to the GPVI-naïve starting ligand library are shown in FIG. 3. […]

Where only a bound is given, the exact number is not on record here.

In the case of GGGAGGACGAUGCGGCAAUCGAAGCUGCAUCCAGCGUAAGCCUUCC (ssRNA, 2'-F C and U; 2'-OH A and G) [EF-1 T1 (RB426)], the equilibrium dissociation constant (Kd) in data set [1] was over 40 nM.

B1: EF-3 annealed to 3' DNA primer (mixed)
RNA: GGGAGGACGAUGCGGAUCACACCGCGUCUUGCGUAAGCCUCCUACUAACGGAUCGCAGACGACUCGCUGAGGAUCCGAGA
DNA: TCTCGGATCCTCAGCGAGTCGTCTG
modifications: RNA strand 2'-F C and U; 2'-OH A and G
With B1, in data set [2], the binding result was “binds”.
